Measured values as given in the RNAGym collection of RNA variant scans (doi:10.1021/acssynbio.7b00057).

B1: Pistol ribozyme (parent)
chain: GGGUCGUUGUUCCAUAAUCGCGUGGAUAUGGCACGCAAGUUUCUACCGGGCACCGUAAAUGUCCGACUGGAGCCGUUCGGGCGGCUAUAAACAGACCUCAGGCCCGAAGCGUGGCGGCACCUGCCGCCGGUGGUAAAAAAGAUCGGAAGAGCACACGUCU

Variants of: B1
Test: aptazyme ON/OFF ratio, guanine; higher = stronger switching; co-transcriptional cleavage with and without guanine

Variant | aptazyme ON/OFF ratio
U8G G9A U10A U11G C12G C13U | 1.28
U7A U8A G9C U10C U11C C13A | 1.03
U7C U8C U11C C12G C13A | 1.4
U8A U11C C12G C13A | 1.31
U7A G9C U10A C12G | 1.13
U7G U8G G9C U10A U11C C13A | 1.07
U7C U8G U10A U11A C13U | 1.29
U8A U10C U11C C12U C13A | 1.05
U7A U8A G9C U10C C13A | 1.04
U7C U8C G9C C13U | 1.05
U7C G9A U10G C12G | 1.28
U7A U8C G9A U10G C13G | 1.2
U7A U8A G9U U10C U11A C12A C13A | 1.2
U8A U10C U11G C12G C13G | 1.26
U7C U8C G9U U10A U11G C12G C13A | 1.19
U7A G9U U11C C12U C13U | 1.26
U8C G9C U11A C12G C13A | 1.17
U8G G9C U10A U11C C12U | 1.04
U7G U8G U11C C13A | 1.41
U7C U8C U10C U11G C12U C13A | 1.28
U7C U8A G9C U10A U11G C13U | 1.16

Variant | aptazyme ON/OFF ratio
U8G U10C U11A | 1.89
U7G U8A G9C U10G U11C C12G C13U | 1.03
U7G U8A G9C U11A C13G | 1.02
U7C U8C G9A U10C U11A C13U | 1.45
U7C G9C U11A C12G C13A | 1.12
U7A U8G G9A U10A U11C C13A | 1.05
U8A U10C U11G C12U C13U | 1.27
U8G G9A U11G C12G C13A | 1.27
U7G U8G G9U U10G U11A C12A C13A | 1.07
U7G U8C G9A U11C C13U | 1.21
U7A U8G U10G U11C C12G C13G | 1.22
U7A U8G G9A U10A U11C C12A C13A | 1.32
U7G U8C U10G C12G C13A | 1.12
U7G U8G U10A U11G C12U C13U | 1.22
U7G U8C G9A U10G U11A C12G | 1.08
U7G G9C U10A U11A C12G | 1.7
U7G U8G G9C U10G C12U C13A | 1.06
U7A G9U U10A U11C C12G | 1.25
U7A G9U U10A U11A C12U | 1.28
U7G U8G G9U U10C U11C C12U C13U | 1.37
U7C U8A G9U U11A C12G C13U | 1.15

Variant | aptazyme ON/OFF ratio
U7C U8G G9C U10G U11C C12U C13A | 1.26
U7A U8G G9C U10A C12U C13U | 1.11
U7G U8C G9U U10C U11A C12A C13A | 1.52
G9A U10G C12U C13A | 1.37
U7C U8C G9A U10C C12A C13A | 1.52
U7A U8C U11A C12A C13U | 1.27
U7A G9A U11G C12U C13G | 1.2
U7G U8A G9U U11C C12G C13A | 1.09
U7C U8A G9A U10C U11C C13A | 1.03
U7C U8G G9A U10A U11G C12U C13A | 1.24
U7A U8G G9C U10G U11G C12G C13A | 1.32
U7A U8G U10G C12G | 1.21
U8C G9A U10C U11A C12U C13G | 1.33
U8A G9U U10G C13U | 1.55
U7C U8G G9U U10G U11G C12U C13A | 1.2
U7C U8G U10G C12G C13G | 1.14
U7C G9U U10A C12A C13A | 1.37
U7A U8A U10A C12A | 1.33
U7C C12A C13G | 1.1
G9U U11G C12G C13A | 1.49
U7A U8G G9C U10A U11G C12U C13G | 1.26

Variant | aptazyme ON/OFF ratio
U7G U8C G9A U10C U11G C13A | 1.16
U7G U8C G9U U10C U11C C13U | 1.52
U7G U8A G9U U10G C12U | 1.13
U7C G9U U10G U11G C12A C13A | 1.1
U7C G9U U10A U11A C13A | 1.26
U7G U8C G9A U11C C12A C13A | 1.11
U7C U8G G9A U10C C12A C13G | 1.09
U7A U8A U10A C12U C13U | 1.2
U7A U8G U10C U11G C13U | 1.53
U7A G9C U10C U11C C12A C13U | 1.02
U7A G9U U11G C12G | 1.15
U7C U8G U10A U11C | 1.04
U8G G9C U10A U11A C13G | 1.04
U7G U8C U10G U11G | 1.31
U7G G9U U10A U11A C12A C13G | 1.26
U8G G9A U11A C12A C13U | 1.15
U8G G9A C13G | 1.07
U7A U8G G9U U10G U11G C13A | 1.16
U7A U8G G9U U10C U11G C12U C13A | 1.21
U8G G9U U10C U11C C12G C13G | 1.1
